Data on 13 proteins can be found in the PETadex activity labels (doi:10.1016/j.ijbiomac.2025.149745).

Residue numbers refer to the chain shown, from its start.

The labels stand for the following.
B1: unnamed (protein)
chain: MDGVLWRVRTAALMAALLALAAWALWASPSVEAQSNPYQRGPNPTRSALTADGPFSVATYTVSRLSVSGFGGVIYYPTGTSLTFGGIAMSPGYTADASSLAWLGRRLASHGFVVLVINTNSRFDYPDSRASQLSAALNYLRTSSPSAVRARLDANRLAVAGHSMGGGGTLRIAEQNPSLKAAVPLTPWHTDKTFNTSVPVLIVGCEADTVAPVSQHAIPFYQNLPSTTPKVYVELDNASHFCPNSNNAAISVYTISWMKLWVDNDTRYRQFLCNVNDPALSDFRTNNRHCQCQ
B2: unnamed (protein)
chain: B1 chain with C205A, F241S, C242A
B3: unnamed (protein)
chain: B1 chain with H162W, C205A, C242A
B4: unnamed (protein)
chain: B1 chain with H162W, C205A, F241S, C242A
B5: unnamed (protein)
chain: B1 chain with H162W, F241S
B6: unnamed (protein)
chain: B1 chain with F241S
B7: unnamed (protein)
chain: B1 chain with C205A, C242A
B8: unnamed (protein)
chain: MNFPRASRLMQAAVLGGLMAVSAAATAQTNPYARGPNPTAASLEASAGPFTVRSFTVSRPSGYGAGTVYYPTNAGGTVGAIAIVPGYTARQSSIKWWGPRLASHGFVVITIDTNSTLDQPSSRSSQQMAALRQVASLNGTSSSPIYGKVDTARMGVMGHSMGGGGSLISAANNPSLKAAAPQAPWDSSTNFSSVTVPTLIFAAENDSIAPVNSSALPIYDSMSRNAKQFLEINGGSHFAANSGNSNQALIGKKGVAWMKRFMDNDTRYSTFACENPNSTRVSDFRTANCS
B9: unnamed (protein)
chain: B8 chain with H159W, A203C, F238S, A239C
B10: unnamed (protein)
chain: B8 chain with H159W, A203C, A239C
B11: unnamed (protein)
chain: B8 chain with A203C, A239C
B12: unnamed (protein)
chain: B8 chain with H159W, F238S
B13: unnamed (protein)
chain: B8 chain with A203C, F238S, A239C

Substrate in one series: PEF
Nature of the series: Proxy for plastic degradation [kcat] (s⁻¹). As to conditions: pH 9.
Take B1: the “Proxy for plastic degradation” value was found to be 0.004.
For B2, the “Proxy for plastic degradation” value was found to be 0.085.
Consider B3, for which the “Proxy for plastic degradation” value is 0.033.
In the case of B4, the “Proxy for plastic degradation” value is 0.0175.
On the same count and under the same terms, then B5, with 0.006.
The same measure, in the same setting: the same measure for B6: 0.115; for B7: 0.005; for B8: 0.
Still for that read-out and setting: then B10, with 0.35.
As to B12, the “Proxy for plastic degradation” value worked out at 0.
For B13, the “Proxy for plastic degradation” value was 0.17.

Substrate in another series: PET
Nature of the series: Proxy for plastic degradation [kcat] (s⁻¹). Conditions: pH 9.
Regarding B1, the “Proxy for plastic degradation” value is 0.0031.
Consider B2, for which the “Proxy for plastic degradation” value came out at 0.035.
Consider B3, for which the “Proxy for plastic degradation” value was 0.003.
The same measure, in the same setting: the same measure for B4: 0.018; for B5: 0.0045; for B6: 0.03.
The same measure, in the same setting: the same measure for B7: 0.01; for B8: 0.
Still for that read-out and setting: then B10, with 0.035; and B12, with 0.
Take B13: the “Proxy for plastic degradation” value was determined as 0.03.

Substrate in the next series: not listed separately
Nature of the series: Proxy for plastic degradation [melting temperature]. Conditions: pH 7.
With B1, the “Proxy for plastic degradation” value was found to be 82 °C.
As for B2, the “Proxy for plastic degradation” value stood at 85 °C.
The same measure, in the same setting: then B3, with 84.9 °C; and B4, with 84.5 °C.
Turning to B5, the “Proxy for plastic degradation” value came out at 82.5 °C.
With B6, the “Proxy for plastic degradation” value is 83 °C.
The same measure, in the same setting: the same measure for B7: 85 °C; for B8: 39.5 °C.
On the same count and under the same terms, then B10, with 48.5 °C; and B12, with 40.4 °C.
Same read-out and setting: then B13, with 48 °C.

Substrate in a further series: pNPB
Nature of the series: Proxy for plastic degradation [kcat/Km (catalytic efficiency)] (mM⁻¹s⁻¹). As to conditions: pH 7.
As to B1, the “Proxy for plastic degradation” value was found to be 335.
Take B2: the “Proxy for plastic degradation” value is 175.
For the protein B3, the “Proxy for plastic degradation” value was found to be 67.
Same read-out and setting: then B4, with 28.
On the same count and under the same terms, the same measure for B5: 2.8; for B6: 125; for B7: 398.
Still for that read-out and setting: the same measure for B8: 2.1; for B10: 3.3; for B12: 0.
Turning to B13, the “Proxy for plastic degradation” value turned out to be 45.8.

Substrate in another series: pNPB
Nature of the series: Proxy for plastic degradation [PET preference ratio] (% relative activity). As to conditions: pH 7.
In the case of B6, the “Proxy for plastic degradation” value turned out to be 0.
For B8, the “Proxy for plastic degradation” value was 0.
As for B12, the “Proxy for plastic degradation” value was 0.

Substrate in a further series: PEF
Nature of the series: Proxy for plastic degradation [Released monomer concentration (HPLC/LC-MS) (FDCA + MHEF)] (s⁻¹). Conditions: pH 9.
B8: the “Proxy for plastic degradation” value is 0.
The same measure, in the same setting: the same measure for B10: 0.35.
Regarding B12, the “Proxy for plastic degradation” value turned out to be 0.
Consider B13, for which the “Proxy for plastic degradation” value was found to be 0.2.

Substrate in a further series: PET
Nature of the series: Proxy for plastic degradation [Released monomer concentration (HPLC/LC-MS) (TPA+MHET+BHET)] (s⁻¹). As to conditions: pH 9.
Take B8: the “Proxy for plastic degradation” value turned out to be 0.
Take B10: the “Proxy for plastic degradation” value worked out at 0.037.
Take B12: the “Proxy for plastic degradation” value amounted to 0.
Still for that read-out and setting: the same measure for B13: 0.03.

Substrate in another series: PEF
Nature of the series: Proxy for plastic degradation [kcat] (s⁻¹). Conditions: pH 9; part of the chain shown.
Regarding B9, the “Proxy for plastic degradation” value stood at 1.02.
Same read-out and setting: then B11, with 0.08.

Substrate in another series: PET
Nature of the series: Proxy for plastic degradation [kcat] (s⁻¹). As to conditions: pH 9; part of the chain shown.
As to B9, the “Proxy for plastic degradation” value came to 0.09.
For the protein B11, the “Proxy for plastic degradation” value came to 0.013.

Substrate in a further series: pNPB
Nature of the series: Proxy for plastic degradation [kcat/Km (catalytic efficiency)] (mM⁻¹s⁻¹). Conditions: pH 7; part of the chain shown.
As for B9, the “Proxy for plastic degradation” value amounted to 8.7.
In the case of B11, the “Proxy for plastic degradation” value was found to be 22.8.

Substrate in the next series: PEF
Nature of the series: Proxy for plastic degradation [Released monomer concentration (HPLC/LC-MS) (FDCA + MHEF)] (s⁻¹). Conditions: pH 9; part of the chain shown.
Turning to B9, the “Proxy for plastic degradation” value was 1.
On the same count and under the same terms, the same measure for B11: 0.11.

Substrate in another series: PET
Nature of the series: Proxy for plastic degradation [Released monomer concentration (HPLC/LC-MS) (TPA+MHET+BHET)] (s⁻¹). Conditions: pH 9; part of the chain shown.
Turning to B9, the “Proxy for plastic degradation” value turned out to be 0.075.
Regarding B11, the “Proxy for plastic degradation” value came out at 0.012.

Substrate in a further series: not listed separately
Nature of the series: Proxy for plastic degradation [melting temperature]. As to conditions: pH 7; part of the chain shown.
For the protein B11, the “Proxy for plastic degradation” value is 47.9 °C.
